US9724381B2 (THE ADMINISTRATORS OF THE TULANE EDUCATIONAL FUND, priority 2009, dated 2017)
Read-outs that look alike come from different tables or passages of the source. Where no end group is shown, it is not given here. [ ]: non-standard residue; d: D form. The star is where a group is joined. d2Nal = N[C@H](Cc1ccc2ccccc2c1)C(=O)O; Palmitoyl = CCCCCCCCCCCCCCCC(=O)*; Octanoyl = CCCCCCCC(=O)*; Dap = NC[C@H](N)C(=O)O

Experiments:
GHS-R 1a [1] = biological target: T1, GHS-R 1a (Rattus norvegicus, UniProt O08725); assay: Plasma GH (ghrelin-induced, GHRH-induced, spontaneous pulsatile) in free-moving adult male rats after GHS-A; format: in vivo; conditions: for plasma GH response to ghrelin, central: 5 μg GHS-A i.c.v. 15 min before 500 ng ghrelin i.c.v.
T1 construct: free-moving rats were i.c.v. injected with either normal saline or GHS-A (5 μg); from tissue; host or cells: whole animal (rat; hypothalamus/pituitary)
Procedure: (§1) Adult male Sprague Dawley rats (225-260 g) were purchased from Charles River Canada (St. Constant, Canada) and individually housed on a 12-h light, 12-h dark cycle (lights on, 0600-1800 h) in a temperature (22±1° C.)- and humidity-controlled room. Purina rat chow (Ralston Purina Co., St. Louis, Mo.) and tap water were available ad libitum.
(§2) Chronic intracerebroventricular (i.c.v.) and intracardiac venous cannulas were implanted under sodium pentobarbital (50 mg/kg, i.p.) anesthesia using previously described techniques in (2) and (11). The placement of the icy cannulae was verified by both a positive drinking response to i.c.v. carbachol (100 ng/10 μl) injection on the day after surgery and methylene blue dye at the time of death. After surgery, the rats were placed directly in isolation test chambers with food and H2O freely available until body weight returned to preoperative levels (usually within 5-7 d). During this time the rats were handled daily to minimize any stress associated with handling on the day of the experiment. On the test day, food was removed 1.5 h before the start of sampling and was returned at the end.
The efficacy of GHS-A to antagonize ghrelin's stimulatory action on GH at both central and peripheral sites was examined. […] (500 ng). Both the human ghrelin peptide (provided by Dr. K. Chang, Phoenix Pharmaceuticals, Inc., Belmont, Calif.) and the GHS-A were diluted in normal saline just before use. Blood samples (0.35 ml) were withdrawn every 15 min over a 6-h sampling period (1000-1600 h) from all animals. […] All blood samples were immediately centrifuged, and plasma was separated and stored at −20° C. for subsequent assay of GH. To avoid hemodynamic disturbance, the red blood cells were resuspended in normal saline and returned to the animal after removal of the next blood sample.
Blood samples were withdrawn from 1000-1600 h, as described above.
These time points were chosen because they correspond closely to the time of onset of the spontaneous GH secretory episodes, as previously documented in our laboratory (2, 4). Blood samples were withdrawn from 1000-1600 h, as described above; however, no blood sample was withdrawn 5 min after the injections.

[2] = biological target: T2, Ghrelin/GHRP/GHS Receptor (Rattus norvegicus, UniProt O08725); assay: In vivo GH release in rat (serum GH by RIA after i.v. peptide); conditions: Table 2
Procedure: For the in vivo assay of GH Release in rat, immature female Sprague Dawley rats were obtained from Charles River from Wilmington, Mass. After arrival they were housed at 25° C. with a 14:10 h light:dark cycle. Water and Purina rat chow were available at libitum. Pups were weaned at 21 days of age.
Immature twenty six day old female Sprague Dawley rats, 3-6 rats per treatment dose, were pretreated with pentobarbital 20 minutes before iv injection of vehicle/peptide or peptide plus stimulator. Injection was made as a 0.1 ml solution. For the non-pentobarbital treated rat assay, peptides were administered iv into the tail vein of conscious rats. All animals were sacrificed by guillotine after iv peptide or vehicle. Trunk blood was collected at +10-15 minutes […], allowed to clot, centrifuged and serum stored until assayed for GH levels by RIA. The GH RIA reagents were distributed by the NIH. Control data was collected from rats treated with only the corresponding vehicle in the absence of peptide or stimulator. Control stimulated data was collected from rats treated with stimulator alone in the absence of any peptide.

GHS-R 1a [3] = biological target: T1, GHS-R 1a; assay: Spontaneous and ghrelin-induced food intake in rats after i.c.v. GHS-A; format: in vivo
Procedure: as §1, §2
The effects of the GHS-A on both spontaneous and ghrelin-induced food intake and body weight gain were investigated. For the spontaneous experiments, the rats were fasted overnight (1600-1100 h next morning) and were i.c.v.-injected with either normal saline or GHS-A (5 μg) at 1100 h. Food intake was monitored on an hourly basis for 5 h after the initial injection (until 1600 h) and subsequently overnight (1600-0900 h next morning). A measured amount of rat chow pellets was placed in the cage every hour. Spillage was collected by placement of a diaper under the rat cages, and total food consumed for each period was calculated by subtracting uneaten food plus spillage from total given. Body weights were recorded daily at 0900 h. The latency to the onset of the first meal after the injection and the duration of that meal were also monitored.
Food intake was monitored on an hourly basis as described above. In this experiment, food was removed 1.5 h before the start of the test.

[4] = biological target: T3, ghrelin O-acyltransferase (GOAT) (Mus musculus, UniProt P0C7A3); conditions: Yang et al. 2008; cited from earlier work
T3 sequence (P0C7A3 1-435): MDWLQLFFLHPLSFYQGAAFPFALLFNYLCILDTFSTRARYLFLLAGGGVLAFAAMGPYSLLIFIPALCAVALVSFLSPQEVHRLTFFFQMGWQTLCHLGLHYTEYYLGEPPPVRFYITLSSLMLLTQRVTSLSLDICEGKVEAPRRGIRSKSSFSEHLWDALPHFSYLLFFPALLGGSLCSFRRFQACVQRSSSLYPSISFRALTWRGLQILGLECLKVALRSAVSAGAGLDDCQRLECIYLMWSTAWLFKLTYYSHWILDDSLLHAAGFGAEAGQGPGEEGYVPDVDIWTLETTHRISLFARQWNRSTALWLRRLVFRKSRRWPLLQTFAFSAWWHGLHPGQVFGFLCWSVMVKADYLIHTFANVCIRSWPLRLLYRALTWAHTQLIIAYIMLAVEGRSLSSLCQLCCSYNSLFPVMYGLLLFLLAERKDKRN

ghrelin-R (GHS-R 1a) [5] = biological target: T4, ghrelin-R (GHS-R 1a) (Rattus norvegicus, UniProt O08725); assay: Plasma growth hormone / GH secretion after administration of peptide (FIG. 11); format: in vivo
T4 construct: from tissue; host or cells: whole animal (hypothalamus)

ghrelin-R (GHS-R 1a) [6] = biological target: T4, ghrelin-R (GHS-R 1a); assay: Food intake after administration of peptide (FIG. 10); format: in vivo
[7] = biological target: T2, Ghrelin/GHRP/GHS Receptor; assay: In vitro GH release from isolated pituitary glands, pituitary incubation method; format: cell-based; conditions: Table 1
Procedure: Hormonal activities were obtained from in vitro studies using pituitaries of 20 day old CD-1 strain Sprague Dawley female rats. Two pituitaries were incubated for a total of 4-6 hours. Medium was removed each hour for RIA of GH level and fresh medium was added again. After two one hour preincubation periods (P1-P2), the vehicle/peptides were added to two one hour incubations (I3-I4). Peptide activity was calculated as the change in the hormonal level (delta) between I3+I4 and P2. For antagonist activity, the incubation was continued for 2 additional hours (I5-I6) where both the peptide and a stimulator of GH secretion was added and the antagonist activity was calculated as the change in the hormonal level (delta) between I5+I6 and P2. The peptides were assayed in triplicate and the hormone was assayed in duplicate. Each value recorded represents the mean of 6. The GH RIA reagents were distributed by the NIH. Control data was collected from isolated pituitary glands treated with only the corresponding vehicle in the absence of peptide or stimulator. Control stimulated data was collected from isolated pituitary glands treated with stimulator alone in the absence of any peptide.

[8] = 5 μg GHS-A i.c.v., spontaneous GH pulses
[9] = overnight-fasted animals, 5 μg GHS-A i.c.v.
[10] = listed as Gly-Met-Ala-Gly-Ser-(Dap-Oct)-Phe-Leu-Ser-Pro-Glu-His-NH2
[11] = listed as Gly-Met-Ala-Gly-Ser-(Dap-Palmityl)-Phe-Leu-Ser-Pro-Glu-His-NH2

T4 sequence (O08725 whole entry): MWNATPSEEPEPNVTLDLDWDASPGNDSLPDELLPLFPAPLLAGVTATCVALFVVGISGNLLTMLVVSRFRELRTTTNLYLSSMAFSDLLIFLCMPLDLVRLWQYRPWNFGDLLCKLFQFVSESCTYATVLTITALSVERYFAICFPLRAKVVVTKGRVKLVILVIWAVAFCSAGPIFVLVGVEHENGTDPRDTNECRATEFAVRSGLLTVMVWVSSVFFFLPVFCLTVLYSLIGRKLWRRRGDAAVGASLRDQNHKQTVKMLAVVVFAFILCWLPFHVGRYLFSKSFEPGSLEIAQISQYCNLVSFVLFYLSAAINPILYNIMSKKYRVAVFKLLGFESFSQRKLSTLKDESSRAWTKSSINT
T1 sequence (O08725 whole entry): as above
T2 sequence (O08725 whole entry): as above

## His-DβNal-DLys-Trp-DPhe-Lys-NH2 (H[d2Nal][dK]W[dF]K-NH2; N-terminus assumed; SMILES NCCCC[C@H](NC(=O)[C@@H](Cc1ccccc1)NC(=O)[C@H](Cc1c[nH]c2ccccc12)NC(=O)[C@@H](CCCCN)NC(=O)[C@@H](Cc1ccc2ccccc2c1)NC(=O)[C@@H](N)Cc1c[nH]cn1)C(N)=O) [GHRP derivative ghrelin receptor antagonist; GHS-A of the rat studies per b295]
GHS-R 1a [1]; 5 μg GHS-A i.c.v.
  1-h GH AUC of the spontaneous GH secretory episode at 1100 h: significantly reduced
  1-h GH AUC of the spontaneous GH secretory episode at 1400 h: significantly reduced
  overall 6-h GH AUC: significantly reduced
GHS-R 1a [1]; listed as GHS-A
  plasma GH response to ghrelin, central: abolished
GHS-R 1a [1]; listed as HisDβNalDLysTrpDPheLysNH2
  plasma GH response to ghrelin, central: virtually obliterated
GHS-R 1a [1]; 5 μg GHS-A i.c.v. 15 min before expected GH secretory bursts
  amplitude of the spontaneous GH pulses: severely attenuated
GHS-R 1a [1]; 5 μg GHS-A i.c.v., ghrelin 500 ng i.c.v., vs normal saline controls
  reduction of GH AUC following i.c.v. ghrelin: 15 fold
GHS-R 1a [1]; [8]
  GH interpeak interval (cluster analysis): no significant effect
  GH nadir (cluster analysis): no significant effect
  GH peak frequency (cluster analysis): no significant effect
  GH peak height (cluster analysis): significant suppression
GHS-R 1a [1]; 250 μg GHS-A i.v. 15 min before 5 μg ghrelin i.v.
  plasma GH response to ghrelin, peripheral: strongly blocked
GHS-R 1a [1]; 250 μg GHS-A i.v., ghrelin 5 μg i.v., vs normal saline controls
  reduction of GH AUC following i.v. ghrelin: 5 fold
GHS-R 1a [1]; GHRH 5 μg i.v.
  GH response to GHRH: did not significantly reduce
[2]; peptide antagonist 30 μg i.v. + stimulator DAla-DβNal-Ala-Trp-DPhe-Lys-NH2 0.3 μg
  Stimulated GH release from rat: 733 ± 85 ng/mL
[2]; peptide antagonist 100 μg i.v. + stimulator DAla-DβNal-Ala-Trp-DPhe-Lys-NH2 1 μg
  Stimulated GH release from rat: 818 ± 269 ng/mL
GHS-R 1a [3]; 5 μg GHS-A i.c.v. before ghrelin 500 ng i.c.v., up to 5 h after injection
  cumulative food intake, ghrelin-stimulated: significantly suppressed
GHS-R 1a [3]; 5 μg i.c.v. before ghrelin 500 ng i.c.v.
  ghrelin-stimulated food intake in the first hour after injections: significantly inhibited
GHS-R 1a [3]; [9]
  cumulative food intake beyond the first hour after injection: not inhibited
  spontaneous food intake in the first hour after injection: significantly inhibited

## Gly-Ser-Ser(Oct)-Phe-Leu (GSS(Octanoyl)FL) [octanoylated ghrelin pentapeptide]
[4]
  GOAT activity: inhibited
  potency enhancement when octanoylated serine-3 replaced by octanoylated diaminopropionic acid: 45 fold

## Gly-Met-Ala-Gly-Ser-(Dap-Oct)-Phe-Leu-Ser-Pro-Glu-His-NH2 (GMAGS[Dap](Octanoyl)FLSPEH-NH2; N-terminus assumed; SMILES CCCCCCCC(=O)NC[C@H](NC(=O)[C@H](CO)NC(=O)CNC(=O)[C@H](C)NC(=O)[C@H](CCSC)NC(=O)CN)C(=O)N[C@@H](Cc1ccccc1)C(=O)N[C@@H](CC(C)C)C(=O)N[C@@H](CO)C(=O)N1CCC[C@H]1C(=O)N[C@@H](CCC(=O)O)C(=O)N[C@@H](Cc1c[nH]cn1)C(N)=O) [peptide #3]
ghrelin-R (GHS-R 1a) [5]
  growth hormone secretion / plasma growth hormone levels: inhibited growth hormone secretion
ghrelin-R (GHS-R 1a) [5]; [10]
  growth hormone secretion / plasma growth hormone levels: inhibited
ghrelin-R (GHS-R 1a) [6]
  food intake: inhibited food intake
ghrelin-R (GHS-R 1a) [6]; [10]
  food intake: reduced

## Gly-Met-Ala-Gly-Ser-(Dap-Palmityl)-Phe-Leu-Ser-Pro-Glu-His-NH2 (GMAGS[Dap](Palmitoyl)FLSPEH-NH2; N-terminus assumed; SMILES CCCCCCCCCCCCCCCC(=O)NC[C@H](NC(=O)[C@H](CO)NC(=O)CNC(=O)[C@H](C)NC(=O)[C@H](CCSC)NC(=O)CN)C(=O)N[C@@H](Cc1ccccc1)C(=O)N[C@@H](CC(C)C)C(=O)N[C@@H](CO)C(=O)N1CCC[C@H]1C(=O)N[C@@H](CCC(=O)O)C(=O)N[C@@H](Cc1c[nH]cn1)C(N)=O) [peptide #6]
ghrelin-R (GHS-R 1a) [5]; [11]
  growth hormone secretion / plasma growth hormone levels: did not inhibit
ghrelin-R (GHS-R 1a) [6]; [11]
  food intake: did not inhibit GH secretion or decreased food intake

## Tyr-DTrp-DLys-Trp-DPhe-NH2 (Y[dW][dK]W[dF]-NH2; N-terminus assumed; SMILES NCCCC[C@@H](NC(=O)[C@@H](Cc1c[nH]c2ccccc12)NC(=O)[C@@H](N)Cc1ccc(O)cc1)C(=O)N[C@@H](Cc1c[nH]c2ccccc12)C(=O)N[C@H](Cc1ccccc1)C(N)=O)
[7]; peptide antagonist 3 μg/ml + stimulator His-DTrp-Ala-Trp-DPhe-Lys-NH2 10 ng/ml
  Change in stimulated GH release versus preincubation (delta): -480 ± 95 ng/mL
[7]; peptide antagonist 30 μg/ml + stimulator His-DTrp-Ala-Trp-DPhe-Lys-NH2 10 ng/ml
  Change in stimulated GH release versus preincubation (delta): -363 ± 66 ng/mL
